Reference: PMC8835902

Assays:
[1] = target: LDgp5 (LoopDel);thioredoxin (trx) D5A;E7A;beta-hairpin;loop;replaced;by;SGSG (bacteriophage T7;Escherichia coli?) (UniProt P00581+P0AA25); test: EMSA; conditions: 20 mM Hepes pH 7.5, 1 mM EDTA, 100 mM KCl, 0.1 mM bME, 5% glycerol, 0.10 mg/mL BSA, 10 nM DNA, 25 C (30 min; 15 min + 15 min for supershift)
[2] = target: WTgp5-trx complex (T7 gp5 DNA polymerase D5A, E7A with thioredoxin) (bacteriophage T7 | not stated) (UniProt P00581)

## GGATTATTTACATTGGCAGATTCACC / TTATTAGTTATGATATTCATGTATAGTTATATGGTGAATCTGCCAATGTAAATAATCC / TATTCATGTATAGTTATGTAGAGACCGAGATCCGCGCTGCCAGTCGGCAGAGCC [Fork template 0gap]
[1]
  Kd: 130 nM

## GGATTATTTACATTGGCAGATTCACC / TTATTAGTTATGATATTCATGTATAGTTATATGGTGAATCTGCCAATGTAAATAATCC / TATTCATGTATAGTTATGTAGAGTCCGAGATCCGCGCTGCCAGTCGGCAGAGCC [Fork template 1gap]
[1]
  Kd: 130 nM

## GGATTATTTACATTGGCAGATTCACC / TTATTAGTTATGATATTCATGTATAGTTATATGGTGAATCTGCCAATGTAAATAATCC / TATTCATGTATAGTTATGTAGAGTTCCGAGATCCGCGCTGCCAGTCGGCAGAGCC [Fork template 2gap]
[1]
  Kd: 130 nM

## GGATTATTTACATTGGCAGATTCACC / TTATTAGTTATGATATTCATGTATAGTTATATGGTGAATCTGCCAATGTAAATAATCC [Linear template-58nt]
[1]
  binding signal (fold lower affinity than WTgp5): 2

## T7 gp4 E343Q with truncated C-terminal tails (from UniProt P03692 1-566) (enzyme)
[2]
  fold decrease in 2-aminopurine fluorescence of fork DNA (local base-pair unwinding), 2-AP at N+3, against the EQgp4-WTgp5 complex: 2 fold
